From PMC3832671, “Two Homologous EF-G Proteins from Pseudomonas aeruginosa Exhibit Distinct Functions” (PLoS ONE, 2013)

Columns and labels:
[1] = tested on: T1, Nc1nc2c(ncn2[C@@H]2O[C@H](COP(=O)(O)OP(=O)(O)OP(=O)(O)O)[C@@H](O)[C@H]2O)c(=O)[nH]1; test: ribosome-dependent GTPase, colorimetric Pi release, Lineweaver-Burk; type: biochemical, Pseudomonas aeruginosa; conditions: P. aeruginosa ribosomes 0.4 μM, EF-G1A 1.0 μM, 10 mM MgCl2, 70 mM NH4Cl, pH 7.5, kcat is kcat^obs
T1 construct: full length (706 residues) with N-terminal 6xHis tag from pET-28b(+), NheI/HindIII; expressed in E. coli Rosetta 2(DE3); about 77 kDa
Excerpt: ribosome-dependent GTPase, colorimetric Pi release, Lineweaver-Burk on EF-G1A

[2] = tested on: T2, Nc1nc2c(ncn2[C@@H]2O[C@H](COP(=O)(O)OP(=O)(O)OP(=O)(O)O)[C@@H](O)[C@H]2O)c(=O)[nH]1; test: as above; type: biochemical, Pseudomonas aeruginosa; conditions: P. aeruginosa ribosomes 0.4 μM, EF-G1B 0.3 μM, 10 mM MgCl2, 70 mM NH4Cl, pH 7.5, 37 °C, kcat is kcat^obs, text b30 prints 71 μM
T2 construct: full length (702 residues) with N-terminal 6xHis tag from pET-28b(+), NheI/HindIII; expressed in E. coli Rosetta 2(DE3); about 77 kDa
Excerpt: ribosome-dependent GTPase, colorimetric Pi release, Lineweaver-Burk on EF-G1B

Substance | Km [1] | kcat [1] | kcat/Km [1] | Km [2] | kcat [2] | kcat/Km [2]
EF-G1A (Pseudomonas aeruginosa PAO1) | 85 µM | 0.04 s⁻¹ | 500 M⁻¹ s⁻¹ | – | – | –
EF-G1B (Pseudomonas aeruginosa PAO1) | – | – | – | 70 µM | 0.2 s⁻¹ | 3000 M⁻¹ s⁻¹
